Patent US20240228562A1 (Pieris, published 2024)

T1: recombinant human CTGF protein (R&D Systems, SEQ ID NO: 79) (human, UniProt P29279 27-349)
T1 construct: Bought; also called human CTGF/CNN2; huCTGF
T1 sequence: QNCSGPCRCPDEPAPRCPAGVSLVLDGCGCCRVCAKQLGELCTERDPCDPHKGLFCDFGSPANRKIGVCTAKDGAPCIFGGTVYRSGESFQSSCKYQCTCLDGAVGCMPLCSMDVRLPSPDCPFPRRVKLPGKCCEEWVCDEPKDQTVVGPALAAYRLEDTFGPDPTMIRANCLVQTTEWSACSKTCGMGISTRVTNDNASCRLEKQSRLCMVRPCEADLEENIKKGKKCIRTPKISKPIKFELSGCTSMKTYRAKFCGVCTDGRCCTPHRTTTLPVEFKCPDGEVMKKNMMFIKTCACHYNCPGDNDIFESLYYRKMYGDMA

T2: mouse CTGF (Abbexa) (mouse, UniProt P29268 26-348, limits assumed)
T2 construct: also called Murine CTGF; mCTGF
T2 sequence (looked up): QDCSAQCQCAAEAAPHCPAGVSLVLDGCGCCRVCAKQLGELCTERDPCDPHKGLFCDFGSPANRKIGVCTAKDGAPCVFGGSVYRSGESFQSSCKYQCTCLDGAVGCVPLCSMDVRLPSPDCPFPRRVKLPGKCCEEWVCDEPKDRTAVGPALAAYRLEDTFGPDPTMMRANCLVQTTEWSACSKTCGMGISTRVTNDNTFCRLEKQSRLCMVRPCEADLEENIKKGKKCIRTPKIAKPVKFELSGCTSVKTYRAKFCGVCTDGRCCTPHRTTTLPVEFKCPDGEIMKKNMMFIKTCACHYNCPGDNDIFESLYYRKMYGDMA

T3: recombinant rat CTGF protein (R&D Systems) (rat, UniProt Q9R1E9 25-347)
T3 construct: Bought; also called rCTGF
T3 sequence: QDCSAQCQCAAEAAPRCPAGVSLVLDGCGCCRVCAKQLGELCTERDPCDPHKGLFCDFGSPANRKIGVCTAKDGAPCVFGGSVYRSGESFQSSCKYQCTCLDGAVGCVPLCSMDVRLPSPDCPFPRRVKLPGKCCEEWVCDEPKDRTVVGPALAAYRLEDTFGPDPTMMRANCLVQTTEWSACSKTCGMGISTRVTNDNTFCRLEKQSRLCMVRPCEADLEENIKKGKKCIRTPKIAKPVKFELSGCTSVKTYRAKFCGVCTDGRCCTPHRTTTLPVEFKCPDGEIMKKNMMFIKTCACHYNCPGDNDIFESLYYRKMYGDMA

T4: cynomolgus CTGF (cynomolgus, UniProt I7G525 27-349)
T4 construct: also called cyCTGF
T4 sequence: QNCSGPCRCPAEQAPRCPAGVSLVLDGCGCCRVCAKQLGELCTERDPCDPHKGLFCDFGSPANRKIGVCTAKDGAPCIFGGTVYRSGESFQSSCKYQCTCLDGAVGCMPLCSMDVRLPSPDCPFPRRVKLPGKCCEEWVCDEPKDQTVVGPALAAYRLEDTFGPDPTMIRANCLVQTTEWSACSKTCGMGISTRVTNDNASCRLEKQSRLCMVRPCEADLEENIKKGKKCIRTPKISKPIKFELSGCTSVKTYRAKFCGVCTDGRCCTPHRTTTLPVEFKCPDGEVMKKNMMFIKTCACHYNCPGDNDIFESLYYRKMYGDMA


How the values were obtained:
[1] = target: T1, recombinant human CTGF protein (R&D …); assay: HTRF, 1 nM biotinylated human CTGF
Experimental: Binding of some fusion proteins was tested by a Homogeneous Time Resolved Fluorescence (HTRF assay). In detail, 1 nM of biotinylated human CTGF (R&D Systems) was incubated for 1 h with a titration of some lipocalins starting at 5 nM in 384 Flat Bottom White Polystyrol microtiter plate (Greiner). Samples were diluted in PBS containing 0.1% Tween 20 and 2% BSA. As donor, Streptavidin-Terbium at a concentration of 0,006 μg/mL was used, the acceptor was 0.2 μg/mL anti-His-d2 (both CisBio). After another 1 h of incubation, the fluorescence intensity of the donor and acceptor on the plate was read using a fluorescence microplate reader M1000 (Tecan) with the standard settings recommended by CisBio. The calculated ratio of signals was used for the curve fitting performed in GraphPad Prism 7 software.

[2] = target: T5, recombinant human CTGF-Fc protein (Creative Biomart) (human); assay: SPR (Biacore)
T5 construct: Bought; also called human CTGF with a human IgG1 Fc Tag
T5 sequence (chain, as listed by the source limits assumed): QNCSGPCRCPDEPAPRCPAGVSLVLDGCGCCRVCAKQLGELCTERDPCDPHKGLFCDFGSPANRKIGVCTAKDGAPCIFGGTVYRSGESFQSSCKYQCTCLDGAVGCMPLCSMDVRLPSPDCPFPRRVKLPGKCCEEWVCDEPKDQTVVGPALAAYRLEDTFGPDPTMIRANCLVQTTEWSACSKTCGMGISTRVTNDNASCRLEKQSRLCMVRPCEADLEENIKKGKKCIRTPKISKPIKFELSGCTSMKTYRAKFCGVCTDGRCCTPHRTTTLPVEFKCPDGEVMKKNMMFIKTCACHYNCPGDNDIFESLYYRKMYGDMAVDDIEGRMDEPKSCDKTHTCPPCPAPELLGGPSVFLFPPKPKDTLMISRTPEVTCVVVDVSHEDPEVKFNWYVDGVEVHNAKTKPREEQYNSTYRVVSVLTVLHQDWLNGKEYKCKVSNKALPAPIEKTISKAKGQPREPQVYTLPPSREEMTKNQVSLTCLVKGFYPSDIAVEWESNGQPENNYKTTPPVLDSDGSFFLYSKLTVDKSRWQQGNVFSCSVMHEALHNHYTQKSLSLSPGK
Experimental: (§1) The binding of exemplary lipocalin muteins to human (Creative Biomart), cynomolgus, rat (R&D Systems) and mouse CTGF (Abbexa) was determined by SPR using a Biacore instrument (Cytiva, formerly GE Healthcare). Some targets were fused to a human IgG1 Fc tag, and captured via the anti-human IgG antibody kit, others were directly immobilized.
(§2) For some measurements, human CTGF with a human IgG1 Fc Tag or rat or murine CTGF without a tag were directly immobilized to a CM5 Chip. The carboxyl groups on the chip were activated using 1-ethyl-3-(3-dimethylaminopropyl)-carbodiimide (EDC) and N-hydroxysuccinimide (NHS). […] Residual non-reacted NHS-esters were blocked by passing a solution of 1 M ethanolamine across the surface. The reference channel was activated/deactivated. For the capture setting, targets with an IgG Fc Tag at 0.25-2.5 μg/mL in HBS-EP+ buffer were captured by the anti-human IgG-Fc antibody at the chip surface for 180 s at a flow rate of 10 μL/min.
(§3) The binding assay was carried out with a contact time of 180 s, a dissociation time of 900-3600 s and a flow rate of 30 μL/min. All measurements were performed at 25° C. […] For the directly immobilized targets, the same regeneration conditions were used. Prior to the protein measurements, three startup cycles were performed for conditioning purposes.

mouse CTGF (Abbexa) = target: T2, mouse CTGF (Abbexa); assay: SPR (Biacore)
Experimental: as §1, §2, §3

[3] = target: T3, recombinant rat CTGF protein (R&D …); assay: SPR (Biacore)
Experimental: as §1, §2, §3

cynomolgus CTGF = target: T4, cynomolgus CTGF; assay: SPR (Biacore)
Experimental: as §1, §2, §3

EC50 [1] [nM]	Kd [2] [nM]	koff [2] [s⁻¹]	kon [2] [M⁻¹ s⁻¹]	Kd (mouse CTGF (Abbexa)) [nM]	koff (mouse CTGF (Abbexa)) [s⁻¹]	kon (mouse CTGF (Abbexa)) [M⁻¹ s⁻¹]	Kd [3] [nM]	koff [3] [s⁻¹]	kon [3] [M⁻¹ s⁻¹]	Kd (cynomolgus CTGF) [nM]	koff (cynomolgus CTGF) [s⁻¹]	kon (cynomolgus CTGF) [M⁻¹ s⁻¹]	Binder
0.56													fusion protein of SEQ ID NO: 68 (designed binder, not shown: C-terminal His-tag) QDSTSDLIPAPPLSKVPLQQNFQDNQFQGKWYVVGLAGNAILREDKQPAKMFATIYELKEDKSYDVTSVRFEAKSCSYTSKTFVPGSQPGEFTAGNIKSAPGQTSTLVRVVSTNYNQHAMVFFKHVSQNRETFVITLYGRTKELTSELKENFIRFSKSLGLPENHIVFPVPIDQCIDGGGGGSGGGGSGGGGSQDSTSDLIPAPPLSKVPLQQNFQDNQFQGKWYVVGWAGNVKLREDKQPQKMSATIYELKEDKSYDVTEVVFEQKKCHYIIKTFVPGSQPGEFTAGDIKSPPGYTSSLVRVVSTNYNQHAMVFFKKVSQNREFFWITLYGRTKELTSELKENFIRFSKSLGLPENHIVFPVPIDQCIDG
0.94													fusion protein of SEQ ID NO: 71 (designed binder, not shown: C-terminal His-tag) QDSTSDLIPAPPLSKVPLQQNFQDNQFQGKWYVVGLAGNAILREDKYPAKMFATIYELKEDKSYDVTSVRFENKSCVYTIKTFVPGSQPGEFTTGNIKSAPGQTSTLVRVVSTNYNQHAMVFFKHVSQNREFFVITLYGRTKELTSELKENFIRFSKSLGLPENHIVFPVPIDQCIDGGGGGSGGGGSGGGGSQDSTSDLIPAPPLSKVPLQQNFQDNQFQGKWYVVGWAGNVKLREDKQPQKMSATIYELKEDKSYDVTEVVFEQKKCHYIIKTFVPGSQPGEFTAGDIKSPPGYTSSLVRVVSTNYNQHAMVFFKKVSQNREFFWITLYGRTKELTSELKENFIRFSKSLGLPENHIVFPVPIDQCIDG
0.83													fusion protein of SEQ ID NO: 73 (designed binder, not shown: C-terminal His-tag) QDSTSDLIPAPPLSKVPLQQNFQDNQFQGKWYVVGLAGNAILREDKYPAKMFATIYELKEDKSYDVTSVRFENKSCVYTSKTFVPGSQPGEFTTGNIKSAPGQTSTLVRVVSTNYNQHAMVFFKHVSQNREFFVITLYGRTKELTSELKENFIRFSKSLGLPENHIVFPVPIDQCIDGGGGGSGGGGSGGGGSQDSTSDLIPAPPLSKVPLQQNFQDNQFQGKWYVVGWAGNVKLREDKQPQKMSATIYELKEDKSYDVTEVVFEQKKCHYIIKTFVPGSQPGEFTAGDIKSPPGYTSSLVRVVSTNYNQHAMVFFKKVSQNREFFWITLYGRTKELTSELKENFIRFSKSLGLPENHIVFPVPIDQCIDG
	0.09	1.41e-05	157000	0.034	1.16e-05	299000	0.255	3.51e-05	138000	0.135	2.63e-05	195000	lipocalin mutein of SEQ ID NO: 24 (designed binder, also called hNGAL mutein) QDSTSDLIPAPPLSKVPLQQNFQDNQFQGKWYVVGVAGNAILRTDKQPAKMFATIYELKEDKSYDVTSVRFEAKSCKYTIKTFVPGSQPGEFTAGNIKSAPGQTSTLVRVVSTNYNQHAMVFFKHVSQNREIFVITLYGRTKELTSELKENFIRFSKSLGLPENHIVFPVPIDQCIDG
0.63													fusion protein of SEQ ID NO: 62 (designed binder, not shown: C-terminal His-tag) QDSTSDLIPAPPLSKVPLQQNFQDNQFQGKWYVVGRAGNNQLREDKSPPKMWATIYELKEDKSYDVTHVHFSTKKCRYIIDTFVPGSQPGEFTAGAIKSGPGLTSPLVRVVSTNYNQHAMVFFKWVTQNREWFTITLYGRTKELTSELKENFIRFSKSLGLPENHIVFPVPIDQCIDGGGGGSGGGGSGGGGSQDSTSDLIPAPPLSKVPLQQNFQDNQFQGKWYVVGWAGNVKLREDKQPQKMSATIYELKEDKSYDVTEVVFEQKKCHYIIKTFVPGSQPGEFTAGDIKSPPGYTSSLVRVVSTNYNQHAMVFFKKVSQNREFFWITLYGRTKELTSELKENFIRFSKSLGLPENHIVFPVPIDQCIDG
	0.249	4.85e-05	195000	1.58	0.000444	281000	1.89	0.000423	223000	0.452	7.31e-05	162000	lipocalin mutein of SEQ ID NO: 31 (designed binder, also called hNGAL mutein; not shown: C-terminal His-tag) QDSTSDLIPAPPLSKVPLQQNFQDNQFQGKWYVVGWAGNVKLREDKQPQKMSATIYELKEDKSYDVTEVVFEQKKCHYIIKTFVPGSQPGEFTAGDIKSPPGYTSSLVRVVSTNYNQHAMVFFKKVSQNREFFWITLYGRTKELTSELKENFIRFSKSLGLPENHIVFPVPIDQCIDG
	0.55	5.94e-05	108000	2.24	0.000287	128000	1.42	0.000273	193000				lipocalin mutein of SEQ ID NO: 35 (designed binder, also called hNGAL mutein; not shown: C-terminal His-tag) QDSTSDLIPAPPLSKVPLQQNFQDNQFQGKWYVVGWAGNVKLREDKQPLKMSATIYELKEDKSYDVTEVVFEQKKCHYIIKTFVPGSQPGEFTAGDIKSPPGYTSSLVRVVSTNYNQHAMVFFKKVSQNREFFWITLYGRTKELTSELKENFIRFSKSLGLPENHIVFPVPIDQCIDG
	0.42	6.95e-05	165000	1.68	0.00052	310000				0.695	9.77e-05	141000	lipocalin mutein of SEQ ID NO: 36 (designed binder, also called hNGAL mutein) QDSTSDLIPAPPLSKVPLQQNFQDNQFQGKWYVVGWAGNVKLREDKQPAKMSATIYELKEDKSYDVTEVVFEQKKCHYIIKTFVPGSQPGEFTAGDIKSPPGYTSSLVRVVSTNYNQHAMVFFKKVGQNREFFWITLYGRTKELTSELKENFIRFSKSLGLPENHIVFPVPIDQCIDG
	1.13	0.000169	150000	11.9	0.00286	240000				1.72	0.000238	139000	lipocalin mutein of SEQ ID NO: 34 (designed binder, also called hNGAL mutein) QDSTSDLIPAPPLSKVPLQQNFQDNQFQGKWYVVGWAGNVILREDKQPFKMSATIYELKEDKSYDVTEVVFEQKKCHYIIKTFVPGSQPGEFTLGDIKSPPGETSTLVRVVSTNYNQHAMVFFKKVSQNREFFWITLYGRTKELTSELKENFIRFSKSLGLPENHIVFPVPIDQCIDG
